In test [1] the target is BG505 SOSIP.664 trimer (HIV-1 isolate BG505 (Clade A)).
For test [2] the target is unchanged. In words: SPR. On the technique in general: Surface plasmon resonance follows binding to a sensor surface in real time, without labels.

This note sets out measurements from paper PMC10221750.

In turn, PGT151 IgG (antibody) came in with a neutralization of BG505 pseudovirus in a TZM-bl assay, IC50 in test [1] of 0.043 µg/mL.
Broadly, the Kd is a measure of binding affinity in units of concentration. A lower Kd goes with higher affinity. What is called koff is a measure of how fast the partners let go of each other. High values mean a short-lived complex, low ones a long-lived complex. What is called kon is a measure of how fast the partners come together. Lower therefore signals slower complex formation. In the case of PGT151 Fab, in test [2], the KD1 (site 1, heterogeneous-ligand model) was below 0.1 nM; the KD2 (site 2, heterogeneous-ligand model) was 27 nM; the Kd was 2 nM; the Sm1 (stoichiometry of site 1, heterogeneous-ligand model) (Fab molecules per trimer) is 1.2. In test [2], the Sm1 + Sm2 (cumulative stoichiometry, heterogeneous-ligand model) (Fab molecules per trimer) was determined as 1.9; the Sm2 (stoichiometry of site 2, heterogeneous-ligand model) (Fab molecules per trimer) turned out to be 0.7; the koff was found to be 0.00018 s⁻¹; the koff1 (site 1, heterogeneous-ligand model) was below 1e-05 s⁻¹. In addition, in test [2], the koff2 (site 2, heterogeneous-ligand model) turned out to be 0.00076 s⁻¹; the kon stood at 87000 M⁻¹ s⁻¹; the kon1 (site 1, heterogeneous-ligand model) turned out to be 140000 M⁻¹ s⁻¹; the kon2 (site 2, heterogeneous-ligand model) turned out to be 28000 M⁻¹ s⁻¹. Further, the stoichiometry N (Fab molecules per trimer) in test [2] is 1.9.
